Data reported in PMC2875157 (Nature, 2010).

Biological target: Yeast eIF2αβγ complex, purified (his-tagged eIF2γ) (yeast, UniProt P20459;P09064;P32481)
Assay: pull-down

Chain of Yeast eIF2αβγ complex, purified (his-tagged eIF2γ) (P20459 whole entry, chain 1 of 3): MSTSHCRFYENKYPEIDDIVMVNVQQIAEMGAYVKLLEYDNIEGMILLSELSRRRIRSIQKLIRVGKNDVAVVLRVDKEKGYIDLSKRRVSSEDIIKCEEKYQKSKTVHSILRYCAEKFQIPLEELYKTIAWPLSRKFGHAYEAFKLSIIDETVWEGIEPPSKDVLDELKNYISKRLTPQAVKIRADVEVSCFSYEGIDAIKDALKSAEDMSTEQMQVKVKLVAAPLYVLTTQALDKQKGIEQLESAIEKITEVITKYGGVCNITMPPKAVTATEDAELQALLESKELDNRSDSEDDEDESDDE
Chain of Yeast eIF2αβγ complex, purified (his-tagged eIF2γ) (P09064 whole entry, chain 2 of 3): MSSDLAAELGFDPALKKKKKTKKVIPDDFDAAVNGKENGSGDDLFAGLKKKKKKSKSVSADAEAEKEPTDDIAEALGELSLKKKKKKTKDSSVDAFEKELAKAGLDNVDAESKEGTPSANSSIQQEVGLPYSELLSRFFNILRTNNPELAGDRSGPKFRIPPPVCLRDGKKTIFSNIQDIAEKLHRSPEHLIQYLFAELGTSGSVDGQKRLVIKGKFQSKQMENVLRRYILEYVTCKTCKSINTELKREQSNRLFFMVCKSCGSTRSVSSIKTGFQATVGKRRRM
Chain of Yeast eIF2αβγ complex, purified (his-tagged eIF2γ) (P32481 whole entry, chain 3 of 3): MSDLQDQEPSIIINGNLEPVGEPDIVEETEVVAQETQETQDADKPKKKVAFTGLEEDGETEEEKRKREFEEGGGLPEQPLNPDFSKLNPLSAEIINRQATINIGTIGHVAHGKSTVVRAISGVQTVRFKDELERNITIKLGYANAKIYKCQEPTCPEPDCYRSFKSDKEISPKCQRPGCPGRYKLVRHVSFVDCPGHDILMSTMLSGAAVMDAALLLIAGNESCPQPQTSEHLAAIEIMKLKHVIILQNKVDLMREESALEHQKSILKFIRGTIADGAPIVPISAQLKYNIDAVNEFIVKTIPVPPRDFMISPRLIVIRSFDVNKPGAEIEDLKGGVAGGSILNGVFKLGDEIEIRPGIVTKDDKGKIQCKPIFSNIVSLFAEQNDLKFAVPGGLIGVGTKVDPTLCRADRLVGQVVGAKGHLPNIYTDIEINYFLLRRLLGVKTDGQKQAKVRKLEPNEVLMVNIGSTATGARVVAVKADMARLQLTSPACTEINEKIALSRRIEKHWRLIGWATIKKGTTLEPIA

| Binder | binding result |
| --- | --- |
| GST-eIF5^W391F (natural protein) MSINICRDNHDPFYRYKMPPIQAKVEGRGNGIKTAVLNVADISHALNRPAPYIVKYFGFELGAQTSISVDKDRYLVNGVHEPAKLQDVLDGFINKFVLCGSCKNPETEIIITKDNDLVRDCKACGKRTPMDLRHKLSSFILKNPPDSVSGSKKKKKAATASANVRGGGLSISDIAQGKSQNAPSDGTGSSTPQHHDEDEDELSRQIKAAASTLEDIEVKDDEWAVDMSEEAIRARAKELEVNSELTQLDEYGEWILEQAGEDKENLPSDVELYKKAAELDVLNDPKIGCVLAQCLFDEDIVNEIAEHNAFFTKILVTPEYEKNFMGGIERFLGLEHKDLIPLLPKILVQLYNNDIISEEEIMRFGTKSSKKFVPKEVSKKVRRAAKPFITFLETAESDDDEEDDE | binds |
| GST-eIF5^LR+CTD (domain or fragment) KKKKAATASANVRGGGLSISDIAQGKSQNAPSDGTGSSTPQHHDEDEDELSRQIKAAASTLEDIEVKDDEWAVDMSEEAIRARAKELEVNSELTQLDEYGEWILEQAGEDKENLPSDVELYKKAAELDVLNDPKIGCVLAQCLFDEDIVNEIAEHNAFFTKILVTPEYEKNFMGGIERFLGLEHKDLIPLLPKILVQLYNNDIISEEEIMRFGTKSSKKFVPKEVSKKVRRAAKPFITWLETAESDDDEEDDE | binds |
| GST-eIF5^CTD (domain or fragment) VNSELTQLDEYGEWILEQAGEDKENLPSDVELYKKAAELDVLNDPKIGCVLAQCLFDEDIVNEIAEHNAFFTKILVTPEYEKNFMGGIERFLGLEHKDLIPLLPKILVQLYNNDIISEEEIMRFGTKSSKKFVPKEVSKKVRRAAKPFITWLETAESDDDEEDDE | binds |
